Data from the nanobody polyreactivity screen of Harvey et al. (2022).

experiment: yeast display, Sf9 membrane polyspecificity reagent, FACS + sequencing; frameworks hold sequencing errors
Method in brief: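 A nanobody's polyreactivity label depends on the gate it was sorted from. Yeast display cells were stained with 10% biotinylated, detergent-solubilized Sf9 membrane reagent for 1 hour at 4 °C, enriched on streptavidin microbeads and sorted by FACS. The low and high (top ~1%) gates were set on anti-HA fluorescence for expression and streptavidin fluorescence for reagent binding.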

Sequence	polyreactivity (PSR sort gate)
QVQLVESGGGLVQAGGSLRLSCAASGRFFSNNAMGWYRPAPGKERELVAAIDSSGDSTNYADSVKGRFTISRDIAKNTVYLQMNSLKPEDTAVYYCNALQRGRRVWQYLYGYWGQGTQVNVSS	high polyreactivity
QVQLVESGGVLVQAGGSLRLSCAASGRTFSVYTMGWYRQAPGKERELVASINWSGGRTYYADSVKGRFTISRDKAKNTVYLQMNSLKPEDTAVYYCAATGWRTLYDYWGQGTQVTVSS	high polyreactivity
QGQLVETGGGLVQAGGSLRLSCAASGRSSVSMLMGWYRQPPGKERELVARITGSGGSTFYADSVKGRFTISRDNAKNTVYLQMNSLIPEDTAVYYCAAGYLWRGRYNYWGQGTQVTVSS	high polyreactivity
QVQLVESGGGLVQAGGSLRLSCAASGITFGYYAMGWYRQAPGKERELVASITSGGSTNYADSVKGRFTISRDNAKNTVYLQMNSLKPEDTAVYYCAKRYYRQYDYWGQGTQVTVSS	low polyreactivity
QVQLVESGGGLVQAGGSLRLSCAASGRTFGRNAMGWYRQAPGERELVAVISRRGSTYYADSVKGRFTISRDNAKNTVYLQMNSLKPEETAVDYCAAYYYIGGKYGSQVYEYDYWGQGTQVTVSS	low polyreactivity
QVQLVVSGGGLVQAGGSLRLSCAASGNIFESYGMGGYRQAPGKERELVANINTSCGSTYYADSVKGRFTISRDNAKNTVYLQMNSLKPEDTAVYYCAAEWYPYPWGYGYWGQGTQVTVSS	low polyreactivity
QVQLVESGGGLVQAGGSLRLSCAASGSTFGRNAMGWYRQAPGKERELVAAITASGGTTYYADSVKGRFTISRDNAKNTVYLQMNSLKPEETAVYYCARAGHFSFKYDYWGQGTQVTVSS	low polyreactivity
QVQLVESGGGLVQAGGSLRLSCAASGRTFKRFAMGWYRQAPGKERELVAAITWSGGNTYYADSVKGRFTISRDNAKNTVYLQMNSLKPEDTAVYYCAAKGAGRRYDSWGQGTQVTVSS	high polyreactivity
QVQLVESGGGLVQAGGSLRLSCAASGFTFRAYAMGWYRQAPGKEREFVAAISYSGGSTYYADSVKGRFTISRDNAKNTVDLQMNSLKPEDTAVYYCATVLYSVPRYNYWGQGTQVTVSS	high polyreactivity
QVQLVESGGGLVQAGGSLRLSCAASGIIFLDYVMGWYRQAPGKERELVAAINSGGSTYYADSVKGRFTISRDNAKNTVYLQMNSLKPEDTAVYYCAADDYYKFDYWGQGTQVTVSS	low polyreactivity
QVQLVESGGGLVQAGGSLRLICAASGLTFGSNGMGWYRQAPGKERELVAAISRGGSTSYADSVKGRFTISRDNAKNTVYLQMNSLKPEDTAVYYCNASPWGPSYFRTPYYGVRRYNYWGQGTQVTVSS	high polyreactivity
QDQLEESGGGLDQAGCSLRLSCAASGFTFNYYTMGWYRQAPVKERELVAVITGGGGSTYYADSVKGRFTISRDNAKNTVYLQMNSLKPEDTAVYYCAAYWGGWSFRYLYDYWGQGTQVTGSS	high polyreactivity
QVQLVESGGGLVQAGGILRLSCAASGRTFGLYAMGWYRQAPGKERELVASITRSGVSTTYADSVKGRFTISRDNAKNTVYLQMNSLKPVDTAVYYCNTDYTGPDGTDEYDYWGQGTQVTVSS	low polyreactivity
QVQLVESGGRLVQAGGSLRLSCAASGSTFWESVLGWNRQSPGKDRELVAAITTNDDSTYYADSVKGRFTISRDNAKNTVYLQMNSLKPEDTAVYYCNAVQITGQFDYWGQGTQVTVSS	low polyreactivity
QVQLVESGGGLVQAGGRLRLSCAASGRIFQYNAMGWYRQAPGKERELVAAITSSGGSTYYADSVKGRFTISRDNAKNTVYLQMNSLKPEDTAVYYCAAKRPQYYVQFGYWGHGTQVTVSS	high polyreactivity
QVQLVESGGGLVQAGGSRRLSCAASGSIFSQYAMGWYRQAPGKEREFVAAINWSGGRTRYADSVKGRFTISRDNAKNTVYLQMNSLKPEDTAVYYCAKVYSLYSYSGRYDYWGQGTQVTVSS	high polyreactivity
QVQLVESGGGLVQAGGSLRLSCAASGRIFPYNAMGWYRQAPGKERELVAAISGRGGSTYYADSVKGRFTISRDNAKNTVYLQMNSLKPEDTAVYYCAKRYVYPGAKHRFRGYDYWGQGTQVTVSS	high polyreactivity
QVQLVESGGGLVQAGGSLRLSCAASGRIFVTYAMGWYRQAPGKERELVAAITSRGGRTYDADSVKGRFTISRDNAKNTVYLQMNSLKPEDTAVYYCAAYPGPGARYYYWGQGTQVTVSS	high polyreactivity
QVQLVESGGGLVQAGGSLRLSCAASGSSFSWNAMGWYSQAPGKERELVAAISKRGTSTYYADSVKGRFTISRDNAKKTVYLQMNSLKPEDTAVYYCAARRYYGVYYAFYYWGQGTQVTVSS	high polyreactivity
QVQLVESGGGLVQAGGSLRLSCAASGFTFPVYTMGWYRQAPGKERELVAAISTSGAGTYYADSVKGRFTISRDNAKNTVYLQMNSLKPEDTAVYYCAAYKRGRPEMYYWGQGTQVTVSS	high polyreactivity
QVQLVESGGGLVQAGGSLRLSCAASGSTIRSNAMGWYRQAPGKERELVAAITSGGSTYYAESVKGRFTISRDNAKNTVYLQMNSLKPEDTAVYYCAVRYYRRRYDYWGQGTQVTVSS	low polyreactivity
QVQLVESGGGLVQAGGSLRLSCAASGSIFWYYAMGWSRQAPGKERELVASISSSGGSTYYADSVKGRFTISRDNAKNTVYLQMNSLKPEDTAVYYCAVRSPYRLSRWRVGYWGQGTQVTVSS	high polyreactivity

Sequence	polyreactivity (PSR sort gate)
QVQLVESGGGLVQAGGSLRLSCAASGGIFGINAMGWYRQAPGKEREFVAAITASGGTTYYADSVKGRFTISRDNAKNTVYLQMNSLKPEDTAVYYCAKRYRSYDYVWYEYWGQGTQVTVSS	high polyreactivity
QVQLVESGGGLVQAGGSLRLSCAASGGIFDRYAMGWYRQAPGKERELVAAITSGGSTNYADSVKGRFTISRDNAKNTVYLQMNSLKPEDTAVYYCNADLGILSGVAEGPTFREYDYWGQGTQVTVSS	low polyreactivity
QVQLVESGGGLVQAGGSLRLSCASSGRIFSGYAMGSYRQAPAKERELVATITSGGGTYYADSVKGRFTISRDNAKNTVYFQMNSLKPEDTAVYYCNAEKKGSFRKYNYWGQGTQVTVSS	low polyreactivity
QVQLVESGGGLVQAGGSLRFSCAASGSTFYLYDMGWYRQAPGQERELVAVISWSGGSTSYADSVKGRFTISRDNAKNTIYLQMYSLKPEDTAVYYCTTDFYHWGQGTQVTVSS	low polyreactivity
QVQLVESGGGLVQAGGSLRLSCAASGRTFGGNAMGWYRQAPGKERELVAVIRSTGGSTYYADSVKGRFTISRDNAKNTVYLQMNSLKPEDTAVYYCAKGRGRNFGYWGQGTQVTVSS	high polyreactivity
QVQLVESGGGLVQAGGSLRLSCAASGLTFKYYAMGWYRQAPGKERELVAAITYSVGTTYYADSVKGRFTISRDNAKNTVYLQMNSLKPEDTAVYYCAADFAPVGLPSPYAVSEGEDDYWGQGTQVTVSS	low polyreactivity
QVQLVDSGGGLVQAGGSLRLSCAAYGSTDKPNAMGWYRQAPGKQRELVAANSGSGGSTYYADTVKGRFTISRDNAKNTVYLQMNSLKPEDTAVYYCAAKRTGNGYPRSGYSRYEYWGQGTQVTVSS	high polyreactivity
QVQLVESGGGLVQAGGSLRLSCAASGSIFDNNAMGWYRQAPGKERELVAAIRRTSTTYYADSVKGRFTISRDNAKNTVYLQMNSLKPEDTAVYYCAATYGSGYWYPRYYYWGQGTQVTVSS	high polyreactivity
QVQVVESGGGLVQAGGSLRLSCAASGSTFVRNAMGWYRQAPGKDRELVAAITTSGARTYYADSVKGRFTISRDNAKHTVYLQMNSLKPEDTAVYYCAAEYKGRTYRFDYWGQGTQVTVSS	low polyreactivity
QVQLVESGGGLVQAGGSLRLSCAASGSIFDRNAMGWYRQAPGKERELVAAINSNAGITYYADSVKGRFTISRDNAKITVYLQMNSLKPEDTAVYYCAADIRVVYREDHWGQGTQVTVSS	low polyreactivity
QVQLVESGGGLVQAGGSLRLSCAASGFTFLAYPMGRYRQAPGKERELVAAISKSGGSTYYADSVKGRFTISRDNAKITVYLQMNSLKPDDTAVYYSNAGRRIKFYGSYDYWGQGSQVTVSS	high polyreactivity
QVQLVESGGGLVQAGGSLSLSCAASGSIFFVNAMGWYRQAPGKERELVAAISRSGGRTYYADSVKGRFTISRDNAKNTVYFQMNSLKPEDTAVYYCAAEYNPGSYFTYDYWGQGTQVTVSS	low polyreactivity
QVQLVESGGGLVQAGGSLRLSCDASGLIFSWYAMGWYRQPPGKERELVAAISKGGGSTYYADSVKGRFTISRDNAKITVYLQMNSLKPEDTAVYYCAAASSYGYGYWGQGTQVTVSS	high polyreactivity
QVQLVESGGRLVQGGGSLRLSCAASGITFKGYTMGWYRQAPGKERELVATISRGGRTYADSVKGRFTISRDNAKNTVYLQMNSLKPEDSAVYYCAADKYWAQNDYWGQGTQVTVSS	low polyreactivity
QVQLQESAGGLVQAGGSLRLRCSASGYISCDASKGWYRQAPGKERELAASITKGSSTNYADSVKGRFTIRDNAKNSVNLQMNSLKPEDTAVCYCAVTYPYWGDYTYWGQGTQVTVSS	low polyreactivity
QVQLVESGGGLVQAGGSLRLSCAASGLTLSYYAMGWYRPAPGKEMELVAAISSGGSTYYADSVKGRFTISRDNAKNTVYLQMNSLKPEDTAVYYCAAQWWRLYWEYYYWGQGTQVTVSS	low polyreactivity
QVQLVESGGGLVQGGGSLRLSCAASGITFCQYAMRWYRQAPGKERELVAGIRFSGSTTYYADSVKGRFTISRDYAKITVYLQMNSLKPEDTAVYDCNVDYYSGLYYYDSWGQGTQVTVSS	low polyreactivity
QVQLVESGGGLVQAGGSLRLSCAASGRTFAYYAMGWYRQAPGKERELVATISWTTGSTYYADSVKGRFTISRDNAKNTVYLQMNSLKPEDTAVYYCNKRYNNPYWYPGRYPYDYWGQGTQVTVSS	high polyreactivity
QVQLVESGGGLVQAGGSLRLSCAASGSTFFPYAMGWYRQAPGKERELVAAIRWSGGRTYYADSVKGRFTISRDNAKNTVYLQMNSLKPEDTAVYYCAADKYLDYDYWGQGTQVTVSS	high polyreactivity
QVQLVESGGGLVQAGGSLRLSCAACGFTIRRYAKGWYRQAPGKERELVAAITTGGSTYYADSVKGRFTISRDNAKNTVYFQMNSLKPEETAVYDCAALYPYKQYRLGYDSWGQGTQVTVSS	high polyreactivity
QVQLVESGGGLVQAGGSLRLSCAASGRIFGTYGMGWYRPAPGKERELVAAISGGGSTNYADSVKGRFTISRDNAKNTVYLQMNSLKPEDTAVYYCATRWYRFYPSDYWGQGTQVTVSS	low polyreactivity
